From PMC6422896, “CrgA Protein Represses AlkB2 Monooxygenase and Regulates the Degradation of Medium-to-Long-Chain n-Alkanes in Pseudomonas aeruginosa SJTD-1” (Frontiers in Microbiology, 2019)

Target: T1, CrgA (Pseudomonas aeruginosa SJTD-1, UniProt Q9I4D7 1-304)
T1 sequence: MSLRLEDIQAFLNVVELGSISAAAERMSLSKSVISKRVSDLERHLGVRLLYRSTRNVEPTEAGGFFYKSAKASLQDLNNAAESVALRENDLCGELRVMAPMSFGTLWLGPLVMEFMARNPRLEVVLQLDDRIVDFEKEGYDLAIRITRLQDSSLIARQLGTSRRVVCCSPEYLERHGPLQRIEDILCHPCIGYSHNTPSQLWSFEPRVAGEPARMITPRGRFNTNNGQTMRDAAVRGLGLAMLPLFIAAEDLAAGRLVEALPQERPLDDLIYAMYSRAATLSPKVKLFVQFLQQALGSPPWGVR
Assay: EMSA; EMSA: 20 mM Tris-HCl, 50 mM NaCl, 1 mM DTT, 0.1 mM EDTA, pH 7.5, 37 C 30 min, 4 pmol DNA in 20 uL, 8% native PAGE; footprinting at 25 C
Conditions: protein: recombinant; tags: His-tag (pET28a, Ni-NTA; NdeI/BamHI cloning, N-terminal tag likely); chain copies: 4; label: 5'-FAM on strand 2; blunt

B1: alkB2-U46 (dsDNA)
DNA 1: AGGACAATTGTCAGACAATCTAACAAGATAAATACGAGGACTTCCC
DNA 2: GGGAAGTCCTCGTATTTATCTTGTTAGATTGTCTGACAATTGTCCT
binding result: no binding

B2: alkB2-b1 (dsDNA)
DNA 1: AGGACAATTGTCAGACAATCTAACAGGGATGGGGCAGGCCGGCCAAGGGAGATAAATACGAGGACTTCCC
DNA 2: GGGAAGTCCTCGTATTTATCTCCCTTGGCCGGCCTGCCCCATCCCTGTTAGATTGTCTGACAATTGTCCT
binding result: binds

B3: alkB2-b2 (dsDNA)
DNA 1: AGGACAATTGTCAGACAATCTAACAAGCGGCGGACAGAACGAAGATAAATACGAGGACTTCCC
DNA 2: GGGAAGTCCTCGTATTTATCTTCGTTCTGTCCGCCGCTTGTTAGATTGTCTGACAATTGTCCT
binding result: binds
